Numbering of substitutions follows the chain as printed. Numbers in names are those of the source.

B1: hIL17RA-ECD variant V3 (Fc fusion)
chain: LRLLDHRAPVCSQPGLNCTVKNSTCLDDSWIHPRNLTPSSPKDLQIQLHFAHTQQGDLFPVAHIEWTLQTDASILYLEGAELSVLQLNTNERLCVRFEFLSKLRHHHKRWRFTFSHFVVDPGQEYEVTVHHLPKPIPDGDPNHQSKNFLVPDCEDARMKVTTPCMSSGSLWDPNITVETLEAHQLRVSFTLWNESTHYQILLTSFPHMENHSCFEHMHHIPAPRPEEFHQRSNVTLTLRNLKWCCRHQVQIQPFFSSCLNDCLRHSVTVSCPEMPDTPEPIPDYMPLW
notes: also called hIL-17R-V3; hIL17R-V3; not shown: human IgG1 engineered Fc (reduced ADCC/CDC) from the expression vector
B2: hIL17RA-ECD variant V10 (Fc fusion)
chain: B1 chain with F59V, D155H, A156P, W243G, V267A
notes: also called V10M; not shown: human IgG1 engineered Fc (reduced ADCC/CDC) from the expression vector
B3: V10 V60F (Fc fusion)
chain: B1 chain with D155H, A156P, W243G, V267A
notes: Expressed in mammalian cells; not shown: human IgG1 engineered Fc from the mammalian expression vector
B4: V10 K109R (Fc fusion)
chain: B1 chain with F59V, K108R, D155H, A156P, W243G, V267A
notes: as for B3
B5: V3 K109R (Fc fusion)
chain: B1 chain with K108R
notes: as for B3
B6: V3M V268A (Fc fusion)
chain: B1 chain with V267A
notes: Expressed in mammalian cells; also called V3 V268A; not shown: human IgG1 engineered Fc from the mammalian expression vector
B7: V3 W244G (Fc fusion)
chain: B1 chain with W243G
notes: as for B3
B8: V3 P10L (Fc fusion)
chain: B1 chain with P9L
notes: as for B3
B9: V6 expressed in E. coli (Trx-6xHis-tagged) (receptor)
chain: B1 chain with P9L, P14E, F59L, D155H, W243G, V267A
notes: Tested as cleared E. coli lysate; not shown: N-terminal thioredoxin (Trx)-6xHistidine tag of pET32
B10: V9 expressed in E. coli (Trx-6xHis-tagged) (receptor)
chain: B1 chain with P14E, D43N, F59L, R96K, G122D, D155H, W243G, V267A
notes: as for B9
B11: V1 expressed in E. coli (Trx-6xHis-tagged) (receptor)
chain: B1 chain with P9L, P14E, D43N, F59L, G122D, R239S, W243G, V267A
notes: as for B9
B12: V18 expressed in E. coli (Trx-6xHis-tagged) (receptor)
chain: B1 chain with P9L, N88D, K108R, W243G, V267A
notes: as for B9
B13: V14 expressed in E. coli (Trx-6xHis-tagged) (receptor)
chain: B1 chain with P9L, L44V, Q55H, G122D, G139R, W243G, Q248H
notes: as for B9
B14: V17 expressed in E. coli (Trx-6xHis-tagged) (receptor)
chain: B1 chain with P9L, F59L, K102E, K108R, W243G, V267A
notes: as for B9
B15: V20 expressed in E. coli (Trx-6xHis-tagged) (receptor)
chain: B1 chain with P14E, L44V, F59V, K108R, G122D, Q123R, D155H, A156P, W243G, V267A
notes: as for B9
B16: V21 expressed in E. coli (Trx-6xHis-tagged) (receptor)
chain: B1 chain with P9L, F59L, D155H, A156P, E181K, T203I, W243G, V267A
notes: as for B9
B17: V19 expressed in E. coli (Trx-6xHis-tagged) (receptor)
chain: B1 chain with R7Q, P9L, P14E, L44I, F59L, K108R, G122D, D155H, W243G, V267A
notes: as for B9
B18: V7 expressed in E. coli (Trx-6xHis-tagged) (receptor)
chain: B1 chain with P9L, F59V, G122D, W243G, V267A
notes: as for B9
B19: V4 expressed in E. coli (Trx-6xHis-tagged) (receptor)
chain: B1 chain with P9L, L44I, F59L, L68P, K108R, G122D, W243G, V267A
notes: as for B9
B20: V15 expressed in E. coli (Trx-6xHis-tagged) (receptor)
chain: B1 chain with P9L, L44V, F99I, K108R, D155H, W243G
notes: as for B9
B21: V8 expressed in E. coli (Trx-6xHis-tagged) (receptor)
chain: B1 chain with P9L, P14E, G122D, W243G, V267A
notes: as for B9
B22: V5 expressed in E. coli (Trx-6xHis-tagged) (receptor)
chain: B1 chain with P9L, D43N, F59L, R96K, G122D, D155H, W243G, V267A
notes: as for B9
B23: V13 expressed in E. coli (Trx-6xHis-tagged) (receptor)
chain: B1 chain with P9L, R96K, K108R, G122D, N193D, V267A
notes: as for B9
B24: V11 expressed in E. coli (Trx-6xHis-tagged) (receptor)
chain: B1 chain with P9L, P14E, G122D, Q123R, D155H, A156P, W243G, V267A
notes: as for B9
B25: V16 expressed in E. coli (Trx-6xHis-tagged) (receptor)
chain: B1 chain with P14E, G122D, W243G, V267A
notes: as for B9
B26: V12 expressed in E. coli (Trx-6xHis-tagged) (receptor)
chain: B1 chain with K108R, H116R, G122D, D155H, A156P, W243G, V267A
notes: as for B9

For one assay, the target named is T1, hIL-17A (human, UniProt Q16552 24-155).
T1 construct: Bought protein
T1 sequence (Q16552 24-155 limits assumed): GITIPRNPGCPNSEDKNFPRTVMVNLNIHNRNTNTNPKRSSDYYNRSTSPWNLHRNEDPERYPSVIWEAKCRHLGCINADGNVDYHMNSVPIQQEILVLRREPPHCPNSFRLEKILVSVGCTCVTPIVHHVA
As to the kind of experiment: SPR (ProteOn XPR36), receptor immobilised, hIL-17A as analyte. On the procedure: The affinity of hIL-17A binding to hIL17RA-ECD variants was determined by SPR measurements on ProteOn XPR36 (Bio-Rad) instrument. All samples were in HBST buffer (10 mM HEPES with 0.15 M NaCl, 3.4 mM EDTA and 0.005% Tween-20, pH 7.2). A GLC Chip was air initialized and activated with EDC/S-NHS and […] from each of the hIL17RA-ECD variants were diluted in Acetate buffer pH 5.5 and immobilized onto the chip. The measured binding levels for WT hIL17RA-ECD, V3 and V10 were ˜5300RU, 6700RU and 7400RU, respectively. Following blockage of the unbound sites on the chip with Ethanolamine, the chip was flushed with HBST buffer and rotated. The hIL-17A was run at 25 μl/min. for 300 sec at various concentrations (50, 25, 12.5, 6.25 and 3.125 nM) followed by a 10-min. dissociation step. Binding parameters were determined using Langmuir single binding site model using the Bio-Rad's proteOn Manager Software V2.1.2.05.
For B1, the “Fold increase in affinity (against WT hIL17RA-ECD)” value stood at 6 fold; the Kd – broadly, the concentration at which binding is half-saturated – turned out to be 0.443 nM; the koff (usually a measure of how fast the partners let go of each other) came out at 7.51e-05 s⁻¹; the kon (commonly the rate constant with which the complex forms) came out at 170000 M⁻¹ s⁻¹.
On the same counts, the results for B2 are 4.2 fold, 0.624 nM, 0.000115 s⁻¹ and 184000 M⁻¹ s⁻¹.

The target of another assay is T1, hIL-17A. As to the kind of experiment: ELISA on captured hIL-17A. The protocol: (§1) ELISA plates (Griener Microlon 96W) were incubated with 100 μl of 0.5 μg/ml goat α-hIL-17A antibodies (R&D Systems) for 1 hour, washed with PBS supplemented with 0.05% Tween-80 (PBST) and 100 μl of 0.35 μg/ml hIL-17A (R&D Systems or ProSpec Tany TechnoGene Ltd.) were added to the plate for an additional 1 hour. The plates were then washed with PBST and blocked by incubation with 100 μl of PBS supplemented with 3% skim milk for 1 hour. Following blocking, the plates were washed and incubated with 100 μl of the cleared lysate, cell media or purified protein generated (described above) at appropriate dilutions and shaken for 1 hour. hIL-17RA (R&D Systems) was applied at a concentration of 6.25 μg/ml as a positive control, and PBS supplemented with 1% BSA as a negative control. Plates were then washed with PBST, incubated with 100 μl of 0.05 μg/ml goat α-hIL-17RA antibodies (R&D Systems) followed by a secondary peroxidase-conjugated streptavidin (Jackson, 1:10000 dilution). Finally, 100 μl of the horseradish peroxidase (HRP) chromogenic 3,3′,5,5′-tetramethylbenzidine (TMB) substrate solution (Dako) were added. The reaction was stopped by the addition of 1 M sulfuric acid and recorded at 450 nm using a Tecan Infinite M200 plate reader.
On the technique in general: In an ELISA, binding on a coated surface is turned into a signal by an enzyme label.
Turning to B1, the “IL-17A binding relative to the WT” value amounted to 100%.
As for B3, the “IL-17A binding relative to the WT” value is 10%.
Same read-out and setting: for B4 the value was 80%; for B5, 45%.
Same read-out and setting: the result for B6 reads 80%; that for B7, 65%.
The same measure, in the same setting: for B2 the value was 100%; for B8, 85%.

Another assay has as its target T1, hIL-17A. As to the kind of experiment: ELISA of cleared E. coli lysate on plate-captured hIL-17A, detected with biotinylated anti-hIL-17RA and streptavidin-HRP, OD 450 nm; concentration not given. The protocol: as §1
In the case of B9, the binding result is recorded as “binds”.
The same measure, in the same setting: for B10 the value was “binds”.

In a further assay the target is T1, hIL-17A. As to the kind of experiment: ELISA on captured hIL-17A, cleared E. coli lysates.
As for B11, the binding result is listed as “binds”.
On the same count and under the same terms, for B12 the value was “binds”; for B13, “binds”; for B14, “binds”.
Take B15: the binding result is reported as “binds”.
On the same count and under the same terms, for B16 the value was “binds”; for B17, “binds”.
Turning to B18, the binding result was “binds”.
Still for that read-out and setting: the result for B19 reads “binds”.
The same measure, in the same setting: the result for B20 reads “binds”; that for B21, “binds”; that for B22, “binds”.
Regarding B23, the binding result is given as “binds”.
As to B24, the binding result was “binds”.
On the same count and under the same terms, the result for B25 reads “binds”; that for B26, “binds”.

(Values after patent publication US20160376343A1 (NATIONAL INSTITUTE FOR BIOTECHNOLOGY IN THE NEGEV, published 2016).)
